Among the data in patent US20100048468A1 (Amgen, published 2010) are EC50 mouse, EC50 human and IC50 values, retold here.

Read-outs that look alike come from different tables or passages of the source. Non-standard residues stand in square brackets, D forms with d. Primed or numbered codes have the meaning given here. No end group written: not given here. Aib′ = alpha aminobutyric acid (source's wording)

By IC50 is commonly meant the concentration that gives 50% inhibition. Low values mean higher potency, high ones lower potency.

The target in assay [1] is T1, mouse GLP-1 receptor (mouse, UniProt O35659 22-463).
T1 sequence (looked up): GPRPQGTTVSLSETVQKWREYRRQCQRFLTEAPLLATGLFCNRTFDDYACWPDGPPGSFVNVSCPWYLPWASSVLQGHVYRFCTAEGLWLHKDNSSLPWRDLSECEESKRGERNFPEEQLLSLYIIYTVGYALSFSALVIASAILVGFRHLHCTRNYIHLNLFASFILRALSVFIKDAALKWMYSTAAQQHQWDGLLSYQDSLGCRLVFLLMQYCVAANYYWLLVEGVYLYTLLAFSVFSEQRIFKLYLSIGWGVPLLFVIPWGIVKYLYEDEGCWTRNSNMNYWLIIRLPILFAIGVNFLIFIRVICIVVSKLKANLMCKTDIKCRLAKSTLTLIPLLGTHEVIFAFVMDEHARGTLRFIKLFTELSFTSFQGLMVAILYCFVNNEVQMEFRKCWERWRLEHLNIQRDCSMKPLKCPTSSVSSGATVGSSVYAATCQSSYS
As to the kind of experiment: cell-based or functional assay.

The target in assay [2] is T2, human GLP-1 receptor (human, UniProt P43220 24-463). Nature of the assay: cell-based or functional assay.
For assay [3], the target named is T1, mouse GLP-1 receptor. As to the kind of experiment: cell-based or functional assay. This is another data set of the same source.
Assay [4] addresses T2, human GLP-1 receptor. Nature of the assay: 125I-GLP-1 displacement, membranes of CHOK1 cells expressing human GLP-1 receptor. The method, then: (§1) Membrane Preparation. […] Cells were sedimented at 1500 rpm for 10 minutes. The resulting pellets were homogenized in 15 mls of ice cold sucrose buffer (25 mM Tris-HCl, 0.32 M Sucrose, 0.25 g/L, sodium azide, pH 7.4) with a motorized, glass fitted, Teflon homogenizer. The homogenate was centrifuged at 48,000×g at 4° C. for 10 minutes, resuspended in 25 ml assay buffer (50 mM Tris-HCl, 5 mM MgCl₂, 10 mg/ml protease-free BSA, 0.1 mg/ml STI, and 0.1 mg/ml Pefabloc, pH 7.4) with a Tissue-Tearor (Biospec Products), then centrifuged again at 48,000×g for 10 minutes. The pellets were homogenized for a third time in 15 ml assay buffer using the Tissue-Tearor and again centrifuged at 48,000×g for 10 minutes. The resulting pellet was resuspended in assay buffer at a wet weight concentration of 4 mg/ml.
(§2) Ligand Binding Assay. Binding assays were performed in 96-well U-bottom plates. […] The reaction was terminated by rapid filtration through Unfilter-96 GF/C glass fiber filter plates (FilterMate 196 Packard Harvester, PerkinElmer, Shelton, Conn.) pre-soaked in 0.5% polyethylenimine, followed by three washes with 300 μl of cold 50 mM Tris-HCl, pH 7.4. Bound radioactivity was determined using a TopCount microplate scintillation and luminescence counter (Packard Instrument Company, PerkinElmer, Shelton, Conn.). Nonlinear regression analyses of resulting concentration curves were performed using GraphPad Prism (GraphPad Software, Inc., San Diego, Calif.).

For assay [5], the target named is T2, human GLP-1 receptor. Nature of the assay: cell-based or functional assay. The source holds these as a separate data set.
Assay [6] addresses T1, mouse GLP-1 receptor. Nature of the assay: cell-based or functional assay. The source holds these as a separate data set.
For assay [7], the target named is T2, human GLP-1 receptor. Nature of the assay: 125I-GLP-1 displacement, membranes of CHOK1 cells expressing human GLP-1 receptor. On the procedure: as §1
as §2, with “Calif.). […]” for “Calif.).”
The source holds these as a separate data set.

In assay [1], HGEGTFTSDVSSYLEGC(PEG 20 kDa)AAKEFIAWLKNGGPSSGAPPPS [cgGLP-13 (SEQ ID NO: 8 + 20k PEG monomer)] registered an EC50 mouse of 3 nM.

In turn, MHHHAEGTFTSDVSSYLEGQAAKEFIAWLVKGR (ends and bridges not checked, Not pegylated) [MHH-GLP1 (SEQ ID NO: 258)] came in with an EC50 human in assay [2] of 1 nM. The EC50 mouse in assay [3] worked out at 5 nM. The IC50 in assay [4] was 350 nM.

For the molecule MQHAEGTFTSDVSSYLEGQAAKEFIAWLVKGR (ends and bridges not checked, Not pegylated) [MQ-GLP1 (SEQ ID NO: 253)], in assay [2], the EC50 human was 0.5 nM. Moreover, the EC50 mouse in assay [3] was found to be 3 nM. Moreover, the IC50 in assay [4] was 64 nM.

The molecule MEHAEGTFTSDVSSYLEGQAAKEFIAWLVKGR (Not pegylated) [ME-GLP1 (SEQ ID NO: 264)] gave an EC50 human in assay [2] of 1 nM. In assay [3], this molecule had an EC50 mouse of 4 nM. In assay [4], this molecule came in with a 50% inhibitory concentration (IC50) of 95 nM.

MYHAEGTFTSDVSSYLEGQAAKEFIAWLVKGR (ends and bridges not checked, Not pegylated) [MY-GLP1 (SEQ ID NO: 259)] had an EC50 human in assay [2] of 0.4 nM. In addition, the EC50 mouse in assay [3] came out at 1 nM. The IC50 in assay [4] was 57 nM.

With MLHAEGTFTSDVSSYLEGQAAKEFIAWLVKGR (ends and bridges not checked, Not pegylated) [ML-GLP1 (SEQ ID NO: 262)], the EC50 human in assay [2] amounted to 0.7 nM. This molecule showed an EC50 mouse in assay [3] of 6 nM. Further, the IC50 in assay [4] worked out at 160 nM.

For MRHAEGTFTSDVSSYLEGQAAKEFIAWLVKGR (ends and bridges not checked, Not pegylated) [MR-GLP1 (SEQ ID NO: 254)], the EC50 human in assay [2] came out at 8 nM. Further, the EC50 mouse in assay [3] was determined as 41 nM. Besides, in assay [4], the IC50 came to 590 nM.

For MHHAEGTFTSDVSSYLEGQAAKEFIAWLVKGR (ends and bridges not checked, Not pegylated) [MH-GLP1 (SEQ ID NO: 257)], the EC50 human in assay [2] was determined as 2 nM. The molecule also yielded an EC50 mouse in assay [3] of 11 nM. Also, in assay [4], the IC50 amounted to 350 nM.

MKHAEGTFTSDVSSYLEGQAAKEFIAWLVKGR (not fully specified; ends and bridges not checked, Not pegylated) [MK-GLP1 (SEQ ID NO: 255)] showed an EC50 human in assay [2] of 4 nM. This molecule showed an EC50 mouse in assay [3] of 12 nM. This molecule also registered an IC50 in assay [4] of 760 nM.

In assay [2], MNHAEGTFTSDVSSYLEGQAAKEFIAWLVKGR (ends and bridges not checked, Not pegylated) [MN-GLP1 (SEQ ID NO: 263)] had an EC50 human of 0.3 nM. Further, the EC50 mouse in assay [3] was determined as 2 nM. Further, in assay [4], the IC50 amounted to 50 nM.

MIHAEGTFTSDVSSYLEGQAAKEFIAWLVKGR (not fully specified; ends and bridges not checked, Not pegylated) [MI-GLP1 (SEQ ID NO: 260)] displayed an EC50 human in assay [2] of 0.6 nM. This molecule also registered an EC50 mouse in assay [3] of 6 nM. This molecule had a 50% inhibitory concentration (IC50) in assay [4] of 75 nM.

In assay [2], MDHAEGTFTSDVSSYLEGQAAKEFIAWLVKGR (Not pegylated) [MD-GLP1 (SEQ ID NO: 261)] registered an EC50 human of 0.3 nM. Besides, the EC50 mouse in assay [3] is 2 nM. Further, the IC50 in assay [4] came to 82 nM.

As to MFHAEGTFTSDVSSYLEGQAAKEFIAWLVKGR (ends and bridges not checked, Not pegylated) [MF-GLP1 (SEQ ID NO: 266)], the EC50 human in assay [2] came to 1 nM. Further, the EC50 mouse in assay [3] was 6 nM. Also, the IC50 in assay [4] stood at 180 nM.

For MMHAEGTFTSDVSSYLEGQAAKEFIAWLVKGR (not fully specified; ends and bridges not checked, Not pegylated) [MM-GLP1 (SEQ ID NO: 267)], the EC50 human in assay [2] came to 0.5 nM. The molecule further came in with an EC50 mouse in assay [3] of 3 nM. Further, the 50% inhibitory concentration (IC50) in assay [4] was determined as 100 nM.

With MWHAEGTFTSDVSSYLEGQAAKEFIAWLVKGR (ends and bridges not checked, Not pegylated) [MW-GLP1 (SEQ ID NO: 265)], the EC50 human in assay [2] turned out to be 0.8 nM. This molecule also returned an EC50 mouse in assay [3] of 5 nM. Further, the IC50 in assay [4] was 79 nM.

Consider AHAEGTFTSDVSSYLEGQAAKEFIAWLVKGR (Not pegylated) [A-GLP-1 (SEQ ID NO: 247)], for which, in assay [2], the EC50 human is 0.2 nM. The molecule further had an EC50 mouse in assay [3] of 0.8 nM. In addition, in assay [4], the IC50 worked out at 38 nM.

The molecule PHAEGTFTSDVSSYLEGQAAKEFIAWLVKGR (ends and bridges not checked, Not pegylated; also called P-CLP-1) [P-GLP-1 (SEQ ID NO: 249)] registered an EC50 human in assay [2] of 0.2 nM. For the same molecule, the EC50 mouse in assay [3] came out at 1 nM. In assay [4], this molecule had an IC50 of 38 nM.

For GHAEGTFTSDVSSYLEGQAAKEFIAWLVKGR (not fully specified, Not pegylated) [G-GLP-1 (SEQ ID NO: 248)], in assay [2], the EC50 human amounted to 1 nM. Moreover, in assay [3], the EC50 mouse came out at 3 nM. This molecule also had an IC50 in assay [4] of 80 nM.

As to SHAEGTFTSDVSSYLEGQAAKEFIAWLVKGR (ends and bridges not checked, Not pegylated; also called S-CLP-1) [S-GLP-1 (SEQ ID NO: 250)], the EC50 human in assay [2] amounted to 0.4 nM. The same molecule gave an EC50 mouse in assay [3] of 2 nM. Also, in assay [4], the IC50 was 53 nM.

As to MHAEGTFTSDVSSYLEGQAAKEFIAWLVKGR (Not pegylated) [M-GLP1 (SEQ ID NO: 256)], the EC50 human in assay [2] was 0.086 nM. Further, the EC50 mouse in assay [3] was 0.5 nM.

On to VHAEGTFTSDVSSYLEGQAAKEFIAWLVKGR (ends and bridges not checked, Not pegylated) [V-GLP-1 (SEQ ID NO: 252)], for which the EC50 human in assay [2] was determined as 0.2 nM. In assay [3], the EC50 mouse is 1 nM. In addition, the IC50 in assay [4] came out at 32 nM.

In turn, THAEGTFTSDVSSYLEGQAAKEFIAWLVKGR (not fully specified; ends and bridges not checked, Not pegylated) [T-GLP-1 (SEQ ID NO: 251)] returned an EC50 human in assay [2] of 0.3 nM. In assay [3], this molecule registered an EC50 mouse of 2 nM. The molecule also yielded an IC50 in assay [4] of 53 nM.

Consider HGEGTFTSDVSSYLE[Aib′]QAAKEFIAWLVKGRGC(mPEG‑maleimide 20 kDa)A-NH2 (also called cgGLP30) [mgGLP32 & mgGLP-20 (SEQ ID NO: 18 + 20k PEG)], for which the EC50 human in assay [5] was found to be 0.13 nM. Also, the EC50 mouse in assay [6] was 0.84 nM. The same molecule returned an IC50 in assay [7] of 56 nM.

In turn, HGEGTFTSDVSSYLE[Aib′]QAAKEFIAWLVKGRGC(mPEG‑maleimide 20 kDa)G-NH2 [mgGLP-16 (SEQ ID NO: 20 + 20k PEG)] returned an EC50 human in assay [5] of 0.2 nM. In addition, the EC50 mouse in assay [6] was 1.6 nM. In assay [7], this molecule came in with an IC50 of 50 nM.

HGEGTFTSDVSSYLE[Aib′]QAAKEFIAWLVKGRG-NH2 [HGEGT FTSDV SSYLE [Aib]QAAK EFIAW LVKGR G-AMIDE (SEQ ID NO: 15)] registered an EC50 human in assay [5] of 0.027 nM. The molecule also returned an EC50 mouse in assay [6] of 0.12 nM. Further, in assay [7], the half-maximal inhibitory concentration (IC50) was found to be 3.5 nM.
